In this experiment the target is dHtt-eGFP fusion protein (Drosophila Huntingtin with a C-terminal eGFP tag) (Drosophila). Put plainly: affinity purification with mass spectrometry.

The values that follow come from publication doi:10.1101/2020.05.27.119552.

The substance “CG8134/dHap40 (Drosophila HAP40), endogenous ~40 kDa protein (from UniProt Q9VXR6 1-345) (natural protein)” gave a stoichiometry N of 1 molar ratio.
